Assay results reported in patent publication US20130316374A1, “BREAST CANCER DIAGNOSTICS” (IMBA - INSTITUT FUR MOLEKULARE BIOTECHNOLOGIE GMBH, priority 2010, published 2013).

Experiments:
[1] = test system: primary mouse mammary gland epithelial cells (MECs); assay: Western blotting of RANKL/RANK downstream signaling in MECs; type: cell-based; conditions: RANKL stimulation (1 μg/ml)
Method: a, Western blotting for phosphorylated (P) IKKα, total IKKα, phosphorylated (P) p65 NFκB, total p65 NFκB, phosphorylated (P) IκBα, and total IκBα in isolated primary mouse mammary gland epithelial cells (MECs) in response to RANKL stimulation (1 μg/ml). […] is shown as loading control. b, Western blotting for IKKα, IKKβ, IKKγ, phosphorylated (P) p65 NFκB, total p65 NFκB, phosphorylated (P) IκBα, and total IκBα in pooled late stage mammary adenocarconimas (n=4 for each lane) that developed in control, RANK^Δmam, and IKKα^Δmam females. β-actin is shown as loading control c, Expression of RANK, CyclinD1, and p21 mRNA in late stage mammary adenocacinomas that developed in control, RANK^Δmam, and IKKα^Δmam females. Expression was determined by qRT-PCR. Data are mean values+/−sem. n=4 per group. d, Soft-Agar Colony Formation Assay. Growth of human SKBR3 breast cancer cells in soft agar in response to stimulation with RANKL (1 μg/ml) or EGF (100 ng/ml). […] Apoptosis was detected by immunostaining for active Caspase 3. f, Apoptotic nuclei of epithelial cells (arrows) are shown for representative mammary gland sections. Magnifications ×40. g, Quantification of mammary epithelial apoptosis. A minimum of 5000 nuclei was counted for each mouse. […]

[2] = test system: human SKBR3 breast cancer cells; assay: Western blotting of RANKL/RANK downstream signaling in SKBR3 cells; type: cell-based; conditions: RANKL stimulation (1 μg/ml)
Method: a, Western blotting for phosphorylated (P) p65 NFκB, total p65 NFκB, phosphorylated (P) IκBα, total IκBα, phosphorylated (P) ERK1/2, total ERK1/2, phosphorylated (P) p38-MAPK, and p38-MAPK in human SKBR3 breast cancer cells in response to RANKL stimulation (1 μg/ml). Data are representative of 3 experiments. b, Growth curve of SKBR3 breast cancer cells cultured in normal growth medium (control, DMEM supplemented with 10% FCS) or in the presence of RANKL (1 μg/ml). Cell numbers were determined by counting live cells (trypan blue-exclusion) over 3 days. c, Onset of palpable mammary tumors in NFATc1^Δmam (n=10) and age matched littermate control (n=16) females treated with MPA pellets and DMBA. Data are shown as percentage of tumor free mice after the last DMBA challenge. No significant difference was found. d, Quantification of NFATc1 mRNA expression in purified mammary epithelial cells (MECs) and MPA-driven mammary tumors from NFATc1^Δmam and littermate control females. mRNA was determined by qRT-PCR. Data are shown as fold change compared to control (+/−sem). n=5 Per group. *P<0.05 (Student's t-test).
The human epithelial breast tumor cell line SKBR3 and primary non-transformed mouse mammary epithelial cells were left untreated or stimulated with recombinant murine RANKL^ref. 9. Adenocarcinomas were isolated from control and mutant mice and total protein lysates prepared. […]

B1: RANKL: Receptor Activator of NF-κB Ligand; recombinant murine RANKL used for stimulation (protein, UniProt O35235 139-316, looked up)
Tumor necrosis factor ligand …: FSGAPAMMEGSWLDVAQRGKPEAQPFAHLTINAASIPSGSHKVTLSSWYHDRGWAKISNMTLSNGKLRVNQDGFYYLYANICFRHHETSGSVPTDYLQLMVYVVKTSIKIPSSHNLMKGGSTKNWSGNSEFHFYSINVGGFFKLRAGEEISIQVSNPSLLDPDQDATYFGAFKVQDID
p65 NFκB and IκBα phosphorylation [1]: resulted in p65 NFκB and IκBα phosphorylation | phosphorylation of p38-MAPKs and ERK [1]: triggered phosphorylation of p38-MAPKs and ERK | NFκB, p38-MAPKs and ERK activation [2]: induced NFκB, p38-MAPKs and ERK activation
